Assay results as given in patent US20240309051A1, “[…] T (TFH) CELLS […] TO SARS-COV-2 VIRUS” (priority 2021, published 2024).

How the values were obtained:
[1] = system: T-cell hybridomas expressing TCRs of clonotype 1/2 (clone 1 and clone 2); format: cell-based, human
[2] = system: CD4 positive cells and patient-derived B cells immortalized by EBV infection; assay: Restimulation assay of PBMC by S864-882 peptide, human IL-21 ELISA; format: cell-based; conditions: peptide 1 μg/ml; 24 hr; compared with not stimulated
[3] = target: T1, SARS-COV-2 spike (S) protein peptide on HLA-DRA*01:01 / HLA-DRB1*15:01 (human); assay: activation reporter or marker
T1 peptide: PPLLTDEMIAQYTSA

[4] = target: T2, SARS-COV-2 spike (S) protein peptide on HLA-DRA*01:01 / HLA-DRB1*15:01 (human); assay: activation reporter or marker
T2 peptide: PLLTDEMIAQYTSAL

[5] = target: T3, SARS-COV-2 spike (S) protein peptide on HLA-DRA*01:01 / HLA-DRB1*15:01 (human); assay: activation reporter or marker
T3 peptide: YTSALLAGTITSGWT

[6] = target: T4, SARS-COV-2 spike (S) protein peptide on HLA-DRA*01:01 / HLA-DRB1*15:01 (human); assay: activation reporter or marker
T4 peptide: AQYTSALLAGTITSG

[7] = target: T5, SARS-COV-2 spike (S) protein peptide on HLA-DRA*01:01 / HLA-DRB1*15:01 (human); assay: activation reporter or marker
T5 peptide: LLTDEMIAQYTSALLAGTI

[8] = target: T6, SARS-COV-2 spike (S) protein peptide on HLA-DRA*01:01 / HLA-DRB1*15:01 (human); assay: activation reporter or marker
T6 peptide: DEMIAQYTSALLAGT

[9] = target: T7, SARS-COV-2 S protein, S867-881 peptide with residue 5 (T) of SEQ ID NO: 13 replaced with alanine peptide on … (human); assay: activation reporter or marker
T7 peptide: DEMIAQYASALLAGT

[10] = target: T8, SARS-COV-2 spike (S) protein peptide on HLA-DRA*01:01 / HLA-DRB1*15:02 (human); assay: activation reporter or marker
T8 peptide: LLTDEMIAQYTSALLAGTI

[11] = target: T9, SARS-COV-2 spike (S) protein peptide on HLA-DRA*01:01 / HLA-DRB1*15:01 (human); assay: activation reporter or marker
T9 peptide: LPPLLTDEMIAQYTS

Molecule: S864-882: peptide of positions 864-882 of the SARS-CoV-2 S protein, epitope of clones 1 and 2
- stimulation of clones 1 and 2, CD69 expression ([1]; APC from an individual who has DRB1*15:02 but not DRB1*15:01): able to stimulate both clones 1 and 2
- epitope determination by stimulating clones 1 and 2 with single synthesized peptide, CD69 ([1]; single peptide 1 μg/ml, 20 hr, in the presence of APC): determined as an epitope for both clones 1 and 2
- concentration of IL-21 in the medium [2]: higher

B1: Clone 1 (TCR-017) (TCR)
alpha TRAV12-1 TRAJ12 CDR3: CVVNRGSSYKLIF
beta TRBV11-2 TRBJ2-7 CDR3: CASSQTYEQYF
- binding result [3]: no recognition
- binding result [4]: no recognition
- binding result [5]: no recognition
- binding result [6]: no recognition
- binding result [7]: recognises
- binding result [8]: recognises
- binding result [9]: no recognition
- binding result [10]: recognises
- binding result [11]: no recognition
